According to US7229788B1, “Protease susceptibility II” (The University of Sydney, priority 1998, dated 2007):

How the values were obtained:
Type in all cases: biochemical
human thrombin = biological target: T1, human thrombin (Homo sapiens, UniProt P00734); experiment: Thrombin digestion of SHEL, SDS-PAGE; conditions: for protection from degradation by thrombin in the coacervated state: coacervated at 37° C., 150 mM NaCl
T1 construct: purchased Sigma
Description: (§1) A range of enzyme concentrations was originally used to determine the optimal amount for subsequent experiments. Thrombin (0.01–1U), human plasma kallikrein (3×10^−4 to 3×10^−3U), human plasmin (7×10^−5 to 4×10^−7U), bovine trypsin (5×10^−4 to 4×10^−3U), and human leukocyte elastase (1.6×10^−4 to 3.2×10^−3U) were added to 10 μg SHEL or SHELδ26A in 50 mM sodium phosphate buffer pH 7.8 in a total volume of 20 μl. All reactions were performed at 37° C. for one hour. Gelatinase A and B were activated using 0.8 mM APMA at 37° C. for 30 minutes (gelatinase A) or 37° C. for 45 minutes (gelatinase B). Gelatinase A (4×10^−3−4×10^−2) and gelatinase B (2×10^−5−1×10^−4) was added to […] SHEL or SHELd26A in a total volume of […]. Gelatinase B reactions were performed in the presence of 0.75 mM APMA. The degradation profile was analysed by 8, 10 or 12% SDS-PAGE.
(§2) Both SHEL and SHELδ26A were used. Each reaction was analysed by 10% SDS-PAGE.
(§3) Extent of proteolysis was monitored by SDS-PAGE.
Cleavage of GST-SHEL bound to glutathione agarose was performed by washing and resuspending beads in 1× thrombin cleavage buffer (50 mM Tris-HCl pH8.0, 150 mM NaCl, 2.5 mM CaCl2) and adding human thrombin (Sigma) from 0.1 to 1% (w/v) thrombin:fusion protein at 25° C. for one hour (Smith and Johnston 1988). Soluble bacterial lysates used as substrate were incubated similarly with 1× thrombin cleavage buffer, added from a 10× stock. GST (26 kDa) was evident on beads by SDS-PAGE but SHEL could not be identified in the supernatant in numerous experiments. To determine whether thrombin was degrading SHEL, the entire cell lysate was subject to cleavage with increasing concentrations of thrombin. […] GST was clearly present. However, with 0.01U thrombin a band at approximately 64 kDa could be discerned which may represent SHEL although this was not nearly as intense as the GST band.

[1] = biological target: T2, human leukocyte elastase (HLE) (Homo sapiens, UniProt P08246); experiment: HLE digestion of SHEL, SDS-PAGE
T2 construct: purchased Sigma
T2 sequence (P08246 30-267): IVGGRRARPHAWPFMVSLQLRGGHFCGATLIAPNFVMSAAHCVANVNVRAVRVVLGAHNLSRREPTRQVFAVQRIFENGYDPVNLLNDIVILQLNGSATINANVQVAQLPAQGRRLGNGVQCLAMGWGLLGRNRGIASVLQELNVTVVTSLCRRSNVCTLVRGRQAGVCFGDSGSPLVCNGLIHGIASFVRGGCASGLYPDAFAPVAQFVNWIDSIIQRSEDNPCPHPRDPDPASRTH
Description: as §1, §2, §3

human plasmin = biological target: T3, human plasmin (Homo sapiens, UniProt P00747); experiment: Plasmin digestion of SHEL, SDS-PAGE; conditions: for protection from degradation by plasmin in the coacervated state: coacervated at 37° C., 150 mM NaCl
T3 construct: purchased Sigma
T3 sequence (P00747 97-810): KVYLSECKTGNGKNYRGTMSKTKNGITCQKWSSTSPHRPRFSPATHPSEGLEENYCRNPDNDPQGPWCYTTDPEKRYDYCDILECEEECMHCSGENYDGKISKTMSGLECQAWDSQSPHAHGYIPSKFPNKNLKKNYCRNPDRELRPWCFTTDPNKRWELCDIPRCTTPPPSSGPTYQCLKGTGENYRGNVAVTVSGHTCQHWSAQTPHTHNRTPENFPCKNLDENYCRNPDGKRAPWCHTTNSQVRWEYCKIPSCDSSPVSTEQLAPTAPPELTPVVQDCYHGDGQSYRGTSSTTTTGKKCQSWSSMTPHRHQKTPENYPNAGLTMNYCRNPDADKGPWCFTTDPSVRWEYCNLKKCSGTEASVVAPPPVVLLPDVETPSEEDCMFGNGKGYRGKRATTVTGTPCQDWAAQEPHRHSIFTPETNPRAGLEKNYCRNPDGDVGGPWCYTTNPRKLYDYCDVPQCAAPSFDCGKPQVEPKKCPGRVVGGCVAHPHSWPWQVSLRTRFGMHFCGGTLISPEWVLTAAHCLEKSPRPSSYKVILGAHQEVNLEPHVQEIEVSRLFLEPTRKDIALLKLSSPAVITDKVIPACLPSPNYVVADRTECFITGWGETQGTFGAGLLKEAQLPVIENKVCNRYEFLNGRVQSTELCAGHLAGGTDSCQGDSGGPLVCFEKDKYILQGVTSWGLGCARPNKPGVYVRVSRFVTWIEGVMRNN
Description: as §1, §2, §3

[2] = biological target: T4, gelatinase B (92 kDa gelatinase) (Homo sapiens, UniProt P14780); experiment: Gelatinase B digestion of SHEL; conditions: SDS-PAGE and zymogram analysis
T4 construct: purchased Boehringer Mannheim Roche Diagnostics
T4 sequence (P14780 107-707 limits assumed, species assumed): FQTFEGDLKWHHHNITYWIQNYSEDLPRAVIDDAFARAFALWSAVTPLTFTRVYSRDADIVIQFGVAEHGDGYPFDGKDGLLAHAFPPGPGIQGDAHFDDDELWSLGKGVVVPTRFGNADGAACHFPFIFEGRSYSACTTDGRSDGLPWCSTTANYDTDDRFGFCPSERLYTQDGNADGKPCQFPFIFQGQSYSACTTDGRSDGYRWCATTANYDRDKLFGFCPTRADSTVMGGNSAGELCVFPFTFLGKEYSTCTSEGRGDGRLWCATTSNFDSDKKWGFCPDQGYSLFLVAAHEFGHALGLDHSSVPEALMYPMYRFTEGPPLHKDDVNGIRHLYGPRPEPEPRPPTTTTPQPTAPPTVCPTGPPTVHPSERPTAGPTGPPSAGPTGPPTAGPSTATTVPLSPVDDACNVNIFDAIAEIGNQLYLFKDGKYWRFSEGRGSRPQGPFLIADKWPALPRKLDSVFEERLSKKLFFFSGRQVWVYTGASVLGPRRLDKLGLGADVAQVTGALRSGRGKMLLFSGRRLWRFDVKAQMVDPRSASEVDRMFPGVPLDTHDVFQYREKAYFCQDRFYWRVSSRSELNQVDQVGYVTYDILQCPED
Description: as §1

bovine trypsin = biological target: T5, bovine trypsin (Bos taurus, UniProt P00760); experiment: Trypsin digestion of SHEL, SDS-PAGE
T5 construct: purchased Boehringer-Mannheim
T5 sequence (P00760 24-246): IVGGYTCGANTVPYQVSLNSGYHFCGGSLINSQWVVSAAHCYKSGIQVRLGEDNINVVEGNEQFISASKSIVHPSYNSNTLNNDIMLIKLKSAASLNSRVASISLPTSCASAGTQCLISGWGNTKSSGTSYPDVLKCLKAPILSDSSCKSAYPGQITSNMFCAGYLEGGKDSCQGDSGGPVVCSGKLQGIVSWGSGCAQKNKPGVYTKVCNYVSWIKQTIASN
Description: as §1, §2, §3

[3] = biological target: T6, Gelatinase A (72 kDa gelatinase) (Homo sapiens, UniProt P08253); experiment: Gelatinase A digestion of SHEL; conditions: SDS-PAGE and zymogram analysis
T6 construct: purchased Boehringer Mannheim Roche Diagnostics
T6 sequence (P08253 110-660): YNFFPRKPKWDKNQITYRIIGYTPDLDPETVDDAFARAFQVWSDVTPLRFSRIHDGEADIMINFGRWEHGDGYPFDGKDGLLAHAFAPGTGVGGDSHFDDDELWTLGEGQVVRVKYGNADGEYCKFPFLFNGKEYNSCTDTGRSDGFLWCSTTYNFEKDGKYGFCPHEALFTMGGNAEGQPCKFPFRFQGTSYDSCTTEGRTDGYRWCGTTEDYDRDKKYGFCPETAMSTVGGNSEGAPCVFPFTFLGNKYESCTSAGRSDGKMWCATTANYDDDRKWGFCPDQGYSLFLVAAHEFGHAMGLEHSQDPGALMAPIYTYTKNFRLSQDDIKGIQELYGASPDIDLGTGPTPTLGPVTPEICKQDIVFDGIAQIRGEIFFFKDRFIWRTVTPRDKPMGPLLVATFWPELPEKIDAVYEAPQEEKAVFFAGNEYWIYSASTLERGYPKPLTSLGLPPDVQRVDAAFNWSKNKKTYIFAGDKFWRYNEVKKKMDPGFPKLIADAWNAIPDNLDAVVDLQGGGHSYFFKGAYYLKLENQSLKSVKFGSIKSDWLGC
Description: as §1

human plasma kallikrein = biological target: T7, human plasma kallikrein (Homo sapiens, UniProt P03952); experiment: Kallikrein digestion of SHEL, SDS-PAGE; conditions: for degradation by human plasma kallikrein: 50 mM sodium phosphate pH 7.8, 37° C.; for protection from degradation by kallikrein in the coacervated state: coacervated at 37° C., 150 mM NaCl
T7 construct: purchased Sigma
T7 sequence (P03952 20-638): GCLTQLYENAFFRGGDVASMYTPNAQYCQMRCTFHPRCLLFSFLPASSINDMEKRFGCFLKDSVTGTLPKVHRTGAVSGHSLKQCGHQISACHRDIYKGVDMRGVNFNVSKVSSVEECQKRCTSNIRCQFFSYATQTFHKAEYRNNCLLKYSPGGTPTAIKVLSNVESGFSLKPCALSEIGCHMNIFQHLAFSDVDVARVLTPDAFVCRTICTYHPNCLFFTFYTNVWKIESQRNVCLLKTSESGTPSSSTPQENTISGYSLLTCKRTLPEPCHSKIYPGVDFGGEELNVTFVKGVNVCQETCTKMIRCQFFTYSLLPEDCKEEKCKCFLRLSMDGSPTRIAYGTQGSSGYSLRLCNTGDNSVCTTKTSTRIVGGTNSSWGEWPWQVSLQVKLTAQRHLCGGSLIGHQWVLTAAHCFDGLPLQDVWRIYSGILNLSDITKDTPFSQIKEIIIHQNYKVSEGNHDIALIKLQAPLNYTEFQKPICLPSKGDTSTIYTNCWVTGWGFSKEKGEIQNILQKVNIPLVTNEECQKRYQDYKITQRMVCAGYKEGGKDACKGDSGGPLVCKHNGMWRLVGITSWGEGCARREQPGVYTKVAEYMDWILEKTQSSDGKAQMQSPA
Description: as §1, §2, §3

protease = experiment: Protease resistance of SHELδ26A compared with SHEL
Description: as §1

[4] = 50 mM sodium phosphate pH 7.8, 37° C.
[5] = coacervated at 37° C., 150 mM NaCl

B1: GST-SHEL: fusion of glutathione S-transferase (GST) with SHEL (protein)
chain: GGVPGAIPGGVPGGVFYPGAGLGALGGGALGPGGKPLKPVPGGLAGAGLGAGLGAFPAVTFPGALVPGGVADAAAAYKAAKAGAGLGGVPGVGGLGVSAGAVVPQPGAGVKPGKVPGVGLPGVYPGGVLPGARFPGVGVLPGVPTGAGVKPKAPGVGGAFAGIPGVGPFGGPQPGVPLGYPIKAPKLPGGYGLPYTTGKLPYGYGPGGVAGAAGKAGYPTGTGVGPQAAAAAAAKAAAKFGAGAAGVLPGVGGAGVPGVPGAIPGIGGIAGVGTPAAAAAAAAAAKAAKYGAAAGLVPGGPGFGPGVVGVPGAGVPGVGVPGAGIPVVPGAGIPGAAVPGVVSPEAAAKAAAKAAKYGARPGVGVGGIPTYGVGAGGFPGFGVGVGGIPGVAGVPSVGGVPGVGGVPGVGISPEAQAAAAAKAAKYGVGTPAAAAAKAAAKAAQFGLVPGVGVAPGVGVAPGVGVAPGVGLAPGVGVAPGVGVAPGVGVAPGIGPGGVAAAAKSAAKVAAKAQLRAAAGLGAGIPGLGVGVGVPGLGVGAGVPGLGVGAGVPGFGAGADEGVRRSLSPELREGDPSSSQHLPSTPSSPRVPGALAAAKAAKYGAAVPGVLGGLGALGGVGIPGGVVGAGPAAAAAAAKAAAKAAQFGLVGAAGLGGLGVGGLGVPGVGGLGGIPPAAAAKAAKYGAAGLGGVLGGAGQFPLGGVAARPGFGLSPIFPGGACLGKACGRKRK
modifications: left off: a dimerising Fc or GST
cleavage of fusion protein by thrombin (human thrombin; thrombin cleavage buffer, 25° C., one hour): extensively and in a reproducible manner

B2: SHEL: recombinant human tropoelastin splice form, amino acid sequence SEQ ID NO:4, obtained by the method of WO94/14958 (protein, listed as Homo sapiens)
chain: GGVPGAIPGGVPGGVFYPGAGLGALGGGALGPGGKPLKPVPGGLAGAGLGAGLGAFPAVTFPGALVPGGVADAAAAYKAAKAGAGLGGVPGVGGLGVSAGAVVPQPGAGVKPGKVPGVGLPGVYPGGVLPGARFPGVGVLPGVPTGAGVKPKAPGVGGAFAGIPGVGPFGGPQPGVPLGYPIKAPKLPGGYGLPYTTGKLPYGYGPGGVAGAAGKAGYPTGTGVGPQAAAAAAAKAAAKFGAGAAGVLPGVGGAGVPGVPGAIPGIGGIAGVGTPAAAAAAAAAAKAAKYGAAAGLVPGGPGFGPGVVGVPGAGVPGVGVPGAGIPVVPGAGIPGAAVPGVVSPEAAAKAAAKAAKYGARPGVGVGGIPTYGVGAGGFPGFGVGVGGIPGVAGVPSVGGVPGVGGVPGVGISPEAQAAAAAKAAKYGVGTPAAAAAKAAAKAAQFGLVPGVGVAPGVGVAPGVGVAPGVGLAPGVGVAPGVGVAPGVGVAPGIGPGGVAAAAKSAAKVAAKAQLRAAAGLGAGIPGLGVGVGVPGLGVGAGVPGLGVGAGVPGFGAGADEGVRRSLSPELREGDPSSSQHLPSTPSSPRVPGALAAAKAAKYGAAVPGVLGGLGALGGVGIPGGVVGAGPAAAAAAAKAAAKAAQFGLVGAAGLGGLGVGGLGVPGVGGLGGIPPAAAAKAAKYGAAGLGGVLGGAGQFPLGGVAARPGFGLSPIFPGGACLGKACGRKRK
degradation by thrombin (human thrombin; 50 mM sodium phosphate pH 7.8, 37° C., one hour): easily degraded
protection from degradation by thrombin in the coacervated state (human thrombin): significantly protected from degradation
degradation by human leukocyte elastase [1, 4]: extensive degradation if left for extended period
protection from degradation by HLE in the coacervated state [1, 5]: some inhibition
degradation by human plasmin (human plasmin; [4]): at high concentration extensive degradation occurred
protection from degradation by plasmin in the coacervated state (human plasmin): not by plasmin
digestion by gelatinase B [2]: digested
degradation by bovine trypsin (bovine trypsin; [4]): complete degradation with prolonged treatment
protection from degradation by trypsin in the coacervated state (bovine trypsin; [5]): some inhibition
digestion by gelatinase A [3]: digested
degradation by human plasma kallikrein (human plasma kallikrein): specific and reproducible degradation
protection from degradation by kallikrein in the coacervated state (human plasma kallikrein): significantly protected from degradation

B3: SHELδ26A: derived from SHEL by removing sequence corresponding to exon 26A; SEQ ID NO:5; reduced tropoelastin derivative (protein, listed as Homo sapiens)
chain: GGVPGAIPGGVPGGVFYPGAGLGALGGGALGPGGKPLKPVPGGLAGAGLGAGLGAFPAVTFPGALVPGGVADAAAAYKAAKAGAGLGGVPGVGGLGVSAGAVVPQPGAGVKPGKVPGVGLPGVYPGGVLPGARFPGVGVLPGVPTGAGVKPKAPGVGGAFAGIPGVGPFGGPQPGVPLGYPIKAPKLPGGYGLPYTTGKLPYGYGPGGVAGAAGKAGYPTGTGVGPQAAAAAAAKAAAKFGAGAAGVLPGVGGAGVPGVPGAIPGIGGIAGVGTPAAAAAAAAAAKAAKYGAAAGLVPGGPGFGPGVVGVPGAGVPGVGVPGAGIPVVPGAGIPGAAVPGVVSPEAAAKAAAKAAKYGARPGVGVGGIPTYGVGAGGFPGFGVGVGGIPGVAGVPSVGGVPGVGGVPGVGISPEAQAAAAAKAAKYGVGTPAAAAAKAAAKAAQFGLVPGVGVAPGVGVAPGVGVAPGVGLAPGVGVAPGVGVAPGVGVAPGIGPGGVAAAAKSAAKVAAKAQLRAAAGLGAGIPGLGVGVGVPGLGVGAGVPGLGVGAGVPGFGAVPGALAAAKAAKYGAAVPGVLGGLGALGGVGIPGGVVGAGPAAAAAAAKAAAKAAQFGLVGAAGLGGLGVGGLGVPGVGGLGGIPPAAAAKAAKYGAAGLGGVLGGAGQFPLGGVAARPGFGLSPIFPGGACLGKACGRKRK
protection from degradation by thrombin in the coacervated state (human thrombin): significant protection from proteolysis
protection from degradation by plasmin in the coacervated state (human plasmin): No protection was seen
protease resistance relative to SHEL (protease): higher protease resistance than SHEL
degradation by human plasma kallikrein (human plasma kallikrein): highly specific and limited proteolysis
protection from degradation by kallikrein in the coacervated state (human plasma kallikrein): significant protection from proteolysis
